Data from paper PMC7679444.

B1: TMEM59 peptide (residues 268–280), wild type [modified: long spacer (Tds) at the N-terminal end, used for immobilisation; long spacer (Tds) at the N-terminal end, used for immobilisation] [not stated] / GST-HA-ATG16L1(231–607) … (parent)
chain 1: PLPVEQDDDIEVIVDETSDHTEETSPVRAISRAATKRLSQPAGGLLDSITNIFGRRSVSSFPVPQDNVDTHPGSGKEVRVPATALCVFDAHDGEVNAVQFSPGSRLLATGGMDRRVKLWEVFGEKCEFKGSLSGSNAGITSIEFDSAGSYLLAASNDFASRIWTVDDYRLRHTLTGHSGKVLSAKFLLDNARIVSGSHDRTLKLWDLRSKVCIKTVFAGSSCNDIVCTEQCVMSGHFDKKIRFWDIRSESIVREMELLGKITALDLNPERTELLSCSRDDLLKVIDLRTNAIKQTFSAPGFKCGSDWTRVVFSPDGSYVAAGSAEGSLYIWSVLTGKVEKVLSKQHSSSINAVAWSPSGSHVVSVDKGCKAVLWAQY
chain 2: YVPSEKLSIYGDL

Variants of: B1
Assay: peptide microarray
Settings: with GST-HA-ATG16L1(231–607) [human], parent: 100

Row | percent of parent (ligand 200, 50, 20 nM) | percent of parent (ligand 800, 600, 400 nM) | Variant
1 | 113 % WT | 115 % WT | chain 2 S8R
2 | 56 % WT | 74 % WT | chain 2 S8L
3 | 55 % WT | 59 % WT | chain 2 S8A
4 | 41 % WT | 51 % WT | chain 2 S8I
5 | 124 % WT | 115 % WT | chain 2 S8H
6 | 158 % WT | 144 % WT | chain 2 S8K
7 | 64 % WT | 113 % WT | chain 2 S8Q
8 | 54 % WT | 67 % WT | chain 2 S8T
9 | 50 % WT | 78 % WT | chain 2 S8P
10 | 175 % WT | 144 % WT | chain 2 S8F
11 | 7 % WT | 9 % WT | chain 2 S8D
12 | 126 % WT | 111 % WT | chain 2 S8N
13 | 6 % WT | 11 % WT | chain 2 S8E
14 | 21 % WT | 27 % WT | chain 2 S8M
15 | 56 % WT | 57 % WT | chain 2 S8G
16 | 69 % WT | 87 % WT | chain 2 L7Y
17 | 38 % WT | 112 % WT | chain 2 L7W
18 | 31 % WT | 58 % WT | chain 2 L7S
19 | 38 % WT | 73 % WT | chain 2 L7T
20 | 153 % WT | 142 % WT | chain 2 L7V
21 | 334 % WT | 176 % WT | chain 2 P3V
22 | 518 % WT | 191 % WT | chain 2 P3T
23 | 328 % WT | 168 % WT | chain 2 P3A

Row | percent of parent (ligand 200, 50, 20 nM) | percent of parent (ligand 800, 600, 400 nM) | Variant
24 | 225 % WT | 145 % WT | chain 2 P3H
25 | 109 % WT | 110 % WT | chain 2 P3N
26 | 216 % WT | 131 % WT | chain 2 P3R
27 | 493 % WT | 189 % WT | chain 2 P3L
28 | 104 % WT | 107 % WT | chain 2 P3D
29 | 254 % WT | 152 % WT | chain 2 P3Q
30 | 184 % WT | 138 % WT | chain 2 P3S
31 | 499 % WT | 181 % WT | chain 2 P3K
32 | 143 % WT | 131 % WT | chain 2 P3G
33 | 483 % WT | 188 % WT | chain 2 P3W
34 | 89 % WT | 86 % WT | chain 2 P3E
35 | 343 % WT | 172 % WT | chain 2 P3I
36 | 435 % WT | 184 % WT | chain 2 P3M
37 | 472 % WT | 168 % WT | chain 2 P3F
38 | 134 % WT | 104 % WT | chain 2 P3Y
39 | 320 % WT | 188 % WT | chain 2 S4Y
40 | 1 % WT | 1 % WT | chain 2 S4F
41 | 63 % WT | 65 % WT | chain 2 S4P
42 | 176 % WT | 155 % WT | chain 2 S4I
43 | 49 % WT | 64 % WT | chain 2 S4G
44 | 163 % WT | 157 % WT | chain 2 S4L
45 | 38 % WT | 30 % WT | chain 2 S4N
46 | 122 % WT | 106 % WT | chain 2 S4H

Row | percent of parent (ligand 200, 50, 20 nM) | percent of parent (ligand 800, 600, 400 nM) | Variant
47 | 352 % WT | 187 % WT | chain 2 S4W
48 | 262 % WT | 180 % WT | chain 2 S4K
49 | 62 % WT | 69 % WT | chain 2 S4T
50 | 33 % WT | 29 % WT | chain 2 S4D
51 | 88 % WT | 94 % WT | chain 2 S4Q
52 | 110 % WT | 110 % WT | chain 2 S4R
53 | 156 % WT | 144 % WT | chain 2 S4V
54 | 31 % WT | 32 % WT | chain 2 S4M
55 | 38 % WT | 45 % WT | chain 2 S4E
56 | 78 % WT | 73 % WT | chain 2 S4A
57 | 101 % WT | 96 % WT | chain 2 V2K
58 | 145 % WT | 134 % WT | chain 2 V2L
59 | 250 % WT | 177 % WT | chain 2 V2F
60 | 47 % WT | 50 % WT | chain 2 V2A
61 | 13 % WT | 18 % WT | chain 2 V2D
62 | 55 % WT | 67 % WT | chain 2 V2H
63 | 96 % WT | 99 % WT | chain 2 V2I
64 | 9 % WT | 11 % WT | chain 2 V2E
65 | 31 % WT | 28 % WT | chain 2 V2M
66 | 73 % WT | 58 % WT | chain 2 V2G
67 | 19 % WT | 25 % WT | chain 2 V2N

Second part, the variant before the results:

Row | Variant | percent of parent (ligand 200, 50, 20 nM) | percent of parent (ligand 800, 600, 400 nM)
68 | chain 2 E5R | 224 % WT | 165 % WT
69 | chain 2 E5V | 47 % WT | 52 % WT
70 | chain 2 E5A | 86 % WT | 95 % WT
71 | chain 2 E5G | 158 % WT | 142 % WT
72 | chain 2 E5F | 22 % WT | 29 % WT
73 | chain 2 E5L | 42 % WT | 51 % WT
74 | chain 2 E5Q | 214 % WT | 167 % WT
75 | chain 2 E5D | 123 % WT | 126 % WT
76 | chain 2 E5I | 27 % WT | 32 % WT
77 | chain 2 E5P | 92 % WT | 97 % WT
78 | chain 2 E5S | 146 % WT | 135 % WT
79 | chain 2 E5W | 105 % WT | 109 % WT
80 | chain 2 E5Y | 158 % WT | 148 % WT
81 | chain 2 E5K | 330 % WT | 186 % WT
82 | chain 2 E5M | 217 % WT | 162 % WT
83 | chain 2 E5N | 269 % WT | 183 % WT
84 | chain 2 E5H | 303 % WT | 183 % WT
85 | chain 2 E5T | 261 % WT | 179 % WT
86 | chain 2 L7A | 98 % WT | 88 % WT
87 | chain 2 L7M | 39 % WT | 52 % WT
88 | chain 2 L7Q | 11 % WT | 28 % WT
89 | chain 2 L7G | 54 % WT | 86 % WT
90 | chain 2 L7R | 32 % WT | 59 % WT
91 | chain 2 L7K | 22 % WT | 53 % WT
92 | chain 2 L7D | 11 % WT | 12 % WT

Row | Variant | percent of parent (ligand 200, 50, 20 nM) | percent of parent (ligand 800, 600, 400 nM)
93 | chain 2 L7E | 3 % WT | 7 % WT
94 | chain 2 L7H | 66 % WT | 103 % WT
95 | chain 2 L7I | 83 % WT | 95 % WT
96 | chain 2 L7N | 46 % WT | 75 % WT
97 | chain 2 L7F | 102 % WT | 89 % WT
98 | chain 2 L7P | 13 % WT | 11 % WT
99 | chain 2 K6Y | 105 % WT | 74 % WT
100 | chain 2 K6V | 50 % WT | 56 % WT
101 | chain 2 K6T | 7 % WT | 12 % WT
102 | chain 2 K6M | 7 % WT | 10 % WT
103 | chain 2 K6D | 7 % WT | 6 % WT
104 | chain 2 K6I | 53 % WT | 61 % WT
105 | chain 2 K6F | 96 % WT | 114 % WT
106 | chain 2 K6P | 7 % WT | 3 % WT
107 | chain 2 K6H | 28 % WT | 21 % WT
108 | chain 2 K6N | 4 % WT | 2 % WT
109 | chain 2 K6G | 6 % WT | 6 % WT
110 | chain 2 K6R | 8 % WT | 11 % WT
111 | chain 2 K6S | 8 % WT | 11 % WT
112 | chain 2 K6E | 2 % WT | 3 % WT
113 | chain 2 K6L | 35 % WT | 51 % WT
114 | chain 2 K6A | 6 % WT | 7 % WT
115 | chain 2 K6W | 126 % WT | 106 % WT
116 | chain 2 K6Q | 3 % WT | 4 % WT
